# Measurements as given in paper PMC9931023 (Journal of Food and Drug Analysis, 2021).
# B1: salt-induced kinase-3 (SIK3), endogenous in breast tissue (enzyme, UniProt Q9Y2K2-5 1-1321, looked up)
# chain: MAAAAASGAGGAAGAGTGGAGPAGRLLPPPAPGSPAAPAAVSPAAGQPRPPAPASRGPMPARIGYYEIDRTIGKGNFAVVKRATHLVTKAKVAIKIIDKTQLDEENLKKIFREVQIMKMLCHPHIIRLYQVMETERMIYLVTEYASGGEIFDHLVAHGRMAEKEARRKFKQIVTAVYFCHCRNIVHRDLKAENLLLDANLNIKIADFGFSNLFTPGQLLKTWCGSPPYAAPELFEGKEYDGPKVDIWSLGVVLYVLVCGALPFDGSTLQNLRARVLSGKFRIPFFMSTECEHLIRHMLVLDPNKRLSMEQICKHKWMKLGDADPNFDRLIAECQQLKEERQVDPLNEDVLLAMEDMGLDKEQTLQSLRSDAYDHYSAIYSLLCDRHKRHKTLRLGALPSMPRALAFQAPVNIQAEQAGTAMNISVPQVQLINPENQIVEPDGTLNLDSDEGEEPSPEALVRYLSMRRHTVGVADPRTEVMEDLQKLLPGFPGVNPQAPFLQVAPNVNFMHNLLPMQNLQPTGQLEYKEQSLLQPPTLQLLNGMGPLGRRASDGGANIQLHAQQLLKRPRGPSPLVTMTPAVPAVTPVDEESSDGEPDQEAVQSSTYKDSNTLHLPTERFSPVRRFSDGAASIQAFKAHLEKMGNNSSIKQLQQECEQLQKMYGGQIDERTLEKTQQQHMLYQQEQHHQILQQQIQDSICPPQPSPPLQAACENQPALLTHQLQRLRIQPSSPPPNHPNNHLFRQPSNSPPPMSSAMIQPHGAASSSQFQGLPSRSAIFQQQPENCSSPPNVALTCLGMQQPAQSQQVTIQVQEPVDMLSNMPGTAAGSSGRGISISPSAGQMQMQHRTNLMATLSYGHRPLSKQLSADSAEAHSLNVNRFSPANYDQAHLHPHLFSDQSRGSPSSYSPSTGVGFSPTQALKVPPLDQFPTFPPSAHQQPPHYTTSALQQALLSPTPPDYTRHQQVPHILQGLLSPRHSLTGHSDIRLPPTEFAQLIKRQQQQRQQQQQQQQQQEYQELFRHMNQGDAGSLAPSLGGQSMTERQALSYQNADSYHHHTSPQHLLQIRAQECVSQASSPTPPHGYAHQPALMHSESMEEDCSCEGAKDGFQDSKSSSTLTKGCHDSPLLLSTGGPGDPESLLGTVSHAQELGIHPYGHQPTAAFSKNKVPSREPVIGNCMDRSSPGQAVELPDHNGLGYPARPSVHEHHRPRALQRHHTIQNSDDAYVQLDNLPGMSLVAGKALSSARMSDAVLSQSSLMGSQQFQDGENEECGASLGGHEHPDLSDGSQHLNSSCYPSTCITDILLSYKHPEVSFSMEQAGV
# Molecular target: p27 (Kip1), endogenous in breast tissue (human (endogenous in breast tissue …, UniProt P46527 1-198))
# Sequence (P46527 whole entry): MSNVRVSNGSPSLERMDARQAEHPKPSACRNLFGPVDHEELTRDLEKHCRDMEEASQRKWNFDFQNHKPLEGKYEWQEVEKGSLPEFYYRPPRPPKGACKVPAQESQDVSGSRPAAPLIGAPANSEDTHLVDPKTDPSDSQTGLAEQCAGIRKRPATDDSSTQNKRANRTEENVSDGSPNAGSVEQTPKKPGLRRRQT
# Assay: FRET or BRET
binder,measurement,value
B1,FRET activity (fold),25.2 fold
